# Data from article PMC5042879 (The Biochemical journal, 2016).
# T1: (His)6-tagged erythrocyte cytoplasmic domain of band 3 (cdb3), wild type (UniProt P02730 1-403)
# T1 sequence (looked up): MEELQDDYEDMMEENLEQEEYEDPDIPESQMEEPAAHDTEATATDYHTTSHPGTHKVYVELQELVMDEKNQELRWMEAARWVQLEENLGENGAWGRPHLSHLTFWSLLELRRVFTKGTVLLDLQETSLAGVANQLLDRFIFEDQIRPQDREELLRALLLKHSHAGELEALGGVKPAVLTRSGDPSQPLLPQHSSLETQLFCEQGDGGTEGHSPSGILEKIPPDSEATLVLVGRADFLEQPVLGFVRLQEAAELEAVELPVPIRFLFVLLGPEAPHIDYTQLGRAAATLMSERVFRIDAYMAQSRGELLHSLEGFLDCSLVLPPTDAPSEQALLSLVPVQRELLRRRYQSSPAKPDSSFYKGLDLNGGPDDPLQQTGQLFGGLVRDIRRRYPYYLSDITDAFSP
# B1: (His)6-tagged kidney cytoplasmic domain of band 3 (kidney cdb3) (domain or fragment, UniProt P02730-2 1-338, looked up)
# chain: MDEKNQELRWMEAARWVQLEENLGENGAWGRPHLSHLTFWSLLELRRVFTKGTVLLDLQETSLAGVANQLLDRFIFEDQIRPQDREELLRALLLKHSHAGELEALGGVKPAVLTRSGDPSQPLLPQHSSLETQLFCEQGDGGTEGHSPSGILEKIPPDSEATLVLVGRADFLEQPVLGFVRLQEAAELEAVELPVPIRFLFVLLGPEAPHIDYTQLGRAAATLMSERVFRIDAYMAQSRGELLHSLEGFLDCSLVLPPTDAPSEQALLSLVPVQRELLRRRYQSSPAKPDSSFYKGLDLNGGPDDPLQQTGQLFGGLVRDIRRRYPYYLSDITDAFSP
# B2: GST-β-adducin tail (amino acids 335–726) (domain or fragment, UniProt P35612 335-726, looked up)
# chain: EKHRPHEVGSVQWAGSTFGPMQKSRLGEHEFEALMRMLDNLGYRTGYTYRHPFVQEKTKHKSEVEIPATVTAFVFEEDGAPVPALRQHAQKQQKEKTRWLNTPNTYLRVNVADEVQRSMGSPRPKTTWMKADEVEKSSSGMPIRIENPNQFVPLYTDPQEVLEMRNKIREQNRQDVKSAGPQSQLLASVIAEKSRSPSTESQLMSKGDEDTKDDSEETVPNPFSQLTDQELEEYKKEVERKKLELDGEKETAPEEPGSPAKSAPASPVQSPAKEAETKSPLVSPSKSLEEGTKKTETSKAATTEPETTQPEGVVVNGREEEQTAEEILSKGLSQMTTSADTDVDTSKDKTESVTSGPMSPEGSPSKSPSKKKKKFRTPSFLKKSKKKEKVES
# Legend:
# [1] = molecular target: B2; test: pull-down
# [2] = molecular target: T1, (His)6-tagged erythrocyte cytoplasmic …; test: pull-down
Kd [1] [nM],Kd [2] [nM],Binder
280,–,B1
–,260,B2
